Molecular target: PrgH_(11–120), cytoplasmic domain of the inner-membrane ring protein PrgH (Salmonella enterica serovar Typhimurium) (UniProt P41783)
Test: crystal structure; PrgH_(11–120) at 5–10 mg/ml, 20°C, 15–20% PEG 6000, 0.02 M CaCl2, 0.1 M HEPES pH 6.5; packing in the asymmetric unit

Work on “PrgH_(11–120), cytoplasmic domain of the inner-membrane ring protein PrgH (from UniProt P41783 11-120) (domain or fragment)” yielded a stoichiometry N of 6.

From paper PMC3635987
